Tests used:
Test in all cases: two-hybrid library CCNG1;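 also: natural log of median RNA to DNA barcode read ratio; higher means stronger binding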
4H3277-bH = biological target: T1, 4H3277-bH
T1 chain: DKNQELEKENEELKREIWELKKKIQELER

4H3858-bH = biological target: T2, 4H3858-bH
T2 chain: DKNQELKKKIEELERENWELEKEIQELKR

4H3462-bH = biological target: T3, 4H3462-bH
T3 chain: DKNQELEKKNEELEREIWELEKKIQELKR

4H570-bH = biological target: T4, 4H570-bH
T4 chain: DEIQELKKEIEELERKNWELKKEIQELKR

4H1348-bH = biological target: T5, 4H1348-bH
T5 chain: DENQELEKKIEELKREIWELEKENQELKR

4H3497-bH = biological target: T6, 4H3497-bH
T6 chain: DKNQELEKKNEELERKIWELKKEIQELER

4H1710-bH = biological target: T7, 4H1710-bH
T7 chain: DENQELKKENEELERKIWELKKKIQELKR

4H850-bH = biological target: T8, 4H850-bH
T8 chain: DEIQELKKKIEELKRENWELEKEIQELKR

4H1544-bH = biological target: T9, 4H1544-bH
T9 chain: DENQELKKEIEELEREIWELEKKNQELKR

4H3298-bH = biological target: T10, 4H3298-bH
T10 chain: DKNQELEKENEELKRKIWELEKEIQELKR

4H3175-bH = biological target: T11, 4H3175-bH
T11 chain: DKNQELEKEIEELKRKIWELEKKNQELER

4H1985-bH = biological target: T12, 4H1985-bH
T12 chain: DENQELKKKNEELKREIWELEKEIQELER

4H3185-bN = biological target: T13, 4H3185-bN
T13 chain: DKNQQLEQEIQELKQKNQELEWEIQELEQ

4H3613-bH = biological target: T14, 4H3613-bH
T14 chain: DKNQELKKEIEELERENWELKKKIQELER

4H591-bH = biological target: T15, 4H591-bH
T15 chain: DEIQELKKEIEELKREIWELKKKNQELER

4H1373-bH = biological target: T16, 4H1373-bH
T16 chain: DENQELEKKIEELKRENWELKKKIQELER

4H3926-bH = biological target: T17, 4H3926-bH
T17 chain: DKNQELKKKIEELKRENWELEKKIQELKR

4H3817-bH = biological target: T18, 4H3817-bH
T18 chain: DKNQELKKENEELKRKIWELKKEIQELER

4H1449-bH = biological target: T19, 4H1449-bH
T19 chain: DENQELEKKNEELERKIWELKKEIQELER

4H626-bH = biological target: T20, 4H626-bH
T20 chain: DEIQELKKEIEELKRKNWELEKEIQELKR

4H1899-bH = biological target: T21, 4H1899-bH
T21 chain: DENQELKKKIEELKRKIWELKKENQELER

4H906-bH = biological target: T22, 4H906-bH
T22 chain: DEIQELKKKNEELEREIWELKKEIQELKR

4H3628-bH = biological target: T23, 4H3628-bH
T23 chain: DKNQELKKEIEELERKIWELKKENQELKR

4H3162-bH = biological target: T24, 4H3162-bH
T24 chain: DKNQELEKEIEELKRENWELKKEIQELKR

4H3974-bH = biological target: T25, 4H3974-bH
T25 chain: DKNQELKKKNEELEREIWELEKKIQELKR

interaction score (4H3277-bH): -0.13
interaction score (4H3858-bH): 0.0862
interaction score (4H3462-bH): 0.558
interaction score (4H570-bH): -0.807
interaction score (4H1348-bH): 0.814
interaction score (4H3497-bH): 0.0523
interaction score (4H1710-bH): -0.0273
interaction score (4H850-bH): 0.659
interaction score (4H1544-bH): 1.3
interaction score (4H3298-bH): 0.0904
interaction score (4H3175-bH): 0.435
interaction score (4H1985-bH): 0.722
interaction score (4H3185-bN): -1.2
interaction score (4H3613-bH): -1.69
interaction score (4H591-bH): -1.39
interaction score (4H1373-bH): 0.103
interaction score (4H3926-bH): 0.857
interaction score (4H3817-bH): 0.205
interaction score (4H1449-bH): 1.19
interaction score (4H626-bH): -1.01
interaction score (4H1899-bH): 0.883
interaction score (4H906-bH): -0.14
interaction score (4H3628-bH): 1.42
interaction score (4H3162-bH): 0.415
interaction score (4H3974-bH): 1.36
Binder: DENQELEKKIEELKREIWELEKENQELKR [4H1348-bH]

Reference: article PMC10397247
